The target of the assay is dipeptidyl peptidase IV (DPPIV) in plasma of ICR mouse blood (mouse, UniProt P28843 37-760). The assay is described as follows: cell-based or functional assay.

This note sets out measurements from patent publication US20090186824A1 (INIMEX PHARMACEUTICALS, published 2009).

Bridges are numbered along the chain shown (N, C = ends). Where no end group is shown, it is not given here. [ ]: non-standard residue; d: D form.

dipeptidyl peptidase IV (DPPIV) in plasma of ICR mouse blood, sequence (P28843 37-760 limits assumed): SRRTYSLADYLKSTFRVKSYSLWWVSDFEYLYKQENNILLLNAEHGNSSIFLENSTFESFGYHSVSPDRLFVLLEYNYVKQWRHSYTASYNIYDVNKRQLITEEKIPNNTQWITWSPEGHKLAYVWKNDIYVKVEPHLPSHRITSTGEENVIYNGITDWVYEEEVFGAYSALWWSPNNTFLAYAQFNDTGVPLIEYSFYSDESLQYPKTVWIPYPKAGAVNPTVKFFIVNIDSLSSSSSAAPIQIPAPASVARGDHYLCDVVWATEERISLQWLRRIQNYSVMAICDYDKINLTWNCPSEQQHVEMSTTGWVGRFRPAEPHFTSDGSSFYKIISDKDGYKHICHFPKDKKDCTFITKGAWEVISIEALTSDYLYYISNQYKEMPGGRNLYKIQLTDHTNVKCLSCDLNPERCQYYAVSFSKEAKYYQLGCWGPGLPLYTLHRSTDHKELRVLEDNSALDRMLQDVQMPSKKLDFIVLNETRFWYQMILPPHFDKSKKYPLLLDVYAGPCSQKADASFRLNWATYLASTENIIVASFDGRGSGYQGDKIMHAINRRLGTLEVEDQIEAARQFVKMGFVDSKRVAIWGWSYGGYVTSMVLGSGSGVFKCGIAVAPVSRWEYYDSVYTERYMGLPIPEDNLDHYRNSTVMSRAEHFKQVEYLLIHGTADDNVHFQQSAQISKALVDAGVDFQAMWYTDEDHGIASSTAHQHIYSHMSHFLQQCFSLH

B1: SEQ ID NO 32 (peptide)
peptide: CRIVPAC
modifications: disulfide 1-7; not fully specified (C-terminus)
As to B1, the “% DPPIV Activity (Saline)” value was 30 % relative to saline control.

B2: SEQ ID NO 2 (peptide)
peptide: Ac-KSRIVP-NH2
Take B2: the “% DPPIV Activity (Saline)” value is 93 % relative to saline control.

B3: SEQ ID NO 62 (peptide)
peptide: [code r][code r]VP-NH2
modifications: not fully specified
Take B3: the “% DPPIV Activity (Saline)” value is 51 % relative to saline control.
